The target in one series is T1, RXRα LBD (Homo sapiens, UniProt P19793).
T1 construct: His10-tag with TEV site (N, cleaved yes); made in house; host or cells: E. coli T7 express (co-expressed with GroEL/ES)
T1 sequence (P19793 226-462): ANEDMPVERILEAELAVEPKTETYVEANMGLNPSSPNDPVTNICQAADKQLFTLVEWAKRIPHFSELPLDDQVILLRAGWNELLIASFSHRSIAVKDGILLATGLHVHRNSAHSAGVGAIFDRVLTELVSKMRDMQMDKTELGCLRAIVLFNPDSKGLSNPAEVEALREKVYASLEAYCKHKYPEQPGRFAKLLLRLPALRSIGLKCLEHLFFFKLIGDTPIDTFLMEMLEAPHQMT
Description: LBD:LBD heterodimer formation HTRF assay, sGFP-PPAR LBD titrated against biotinylated RXRα LBD coupled to Tb-SA. The settings on record: sGFP-PPAR LBD titrated up to […]; 0.375 nM RXRα; no ligand; read-out: apparent Kd of heterodimer formation with RXRα LBD. The series is classed as binding. On the technique in general: In TR-FRET formats the signal depends on donor and acceptor labels being close together.

The target of series [1] is T2, biotinylated RXRα LBD (N-terminal Avi-tag) (human, UniProt P19793-1 226-462, biotin on the Lys residue in the Avi-tag).
T2 chain: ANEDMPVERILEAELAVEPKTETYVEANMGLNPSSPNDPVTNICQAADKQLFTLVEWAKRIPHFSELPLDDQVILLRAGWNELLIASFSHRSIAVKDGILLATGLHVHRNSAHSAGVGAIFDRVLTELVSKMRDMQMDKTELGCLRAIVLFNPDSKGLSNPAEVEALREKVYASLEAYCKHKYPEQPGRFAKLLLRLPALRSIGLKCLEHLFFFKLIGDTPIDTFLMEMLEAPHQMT
Description: FRET.

Series [2] concerns the molecule itself. The series is described as follows: SEC; size exclusion chromatography during purification; 16/600 Superdex75 (and 16/600 Superdex200 for sGFP-RXRα) in 25 mM Hepes pH 7.5, 150 mM KF, 10% glycerol, 5 mM DTT. A general note: In gel filtration, larger molecules generally elute earlier.
In the next series the target is T3, sGFP-PPARα LBD (human, UniProt Q07869-1 198-468).
T3 construct: PPARα LBD, human, UniProt Q07869-1, residues 198-468; source: E. coli T7 express, coexpressed with GroEL/ES, purified (Ni IMAC, TEV, reverse IMAC, SEC); not shown: His10, N-terminal, cleaved; sGFP, N-terminal, kept
T3 sequence (looked up): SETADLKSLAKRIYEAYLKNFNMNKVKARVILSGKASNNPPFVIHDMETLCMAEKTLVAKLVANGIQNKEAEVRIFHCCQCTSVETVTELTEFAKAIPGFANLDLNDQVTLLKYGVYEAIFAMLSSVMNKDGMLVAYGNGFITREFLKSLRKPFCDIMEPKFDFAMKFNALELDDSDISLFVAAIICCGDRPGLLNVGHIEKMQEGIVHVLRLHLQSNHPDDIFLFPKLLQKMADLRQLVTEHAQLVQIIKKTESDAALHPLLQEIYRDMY
Description: AlphaScreen or HTRF; LBD:LBD dimer formation; biotinylated RXRα LBD (0.375 nM) coupled to Tb-SA (0.75 nM) as FRET donor; sGFP-PPAR LBD titrated up to 4.8 μM, total sGFP kept constant with free sGFP; no ligand; HTRF assay buffer with 0.1% CHAPS and 1% DMSO; 1 h at RT; apparent Kd from the inflection point. The settings on record: both partners purified.

The target of the next series is T4, sGFP-PPARβ/δ LBD (human, UniProt Q03181-1 170-441).
T4 construct: PPARβ/δ LBD, human, UniProt Q03181-1, residues 170-441; also called PPARδ; source: E. coli T7 express, coexpressed with GroEL/ES, purified (Ni IMAC, TEV, reverse IMAC, SEC); not shown: His10, N-terminal, cleaved; sGFP, N-terminal, kept
T4 sequence (looked up): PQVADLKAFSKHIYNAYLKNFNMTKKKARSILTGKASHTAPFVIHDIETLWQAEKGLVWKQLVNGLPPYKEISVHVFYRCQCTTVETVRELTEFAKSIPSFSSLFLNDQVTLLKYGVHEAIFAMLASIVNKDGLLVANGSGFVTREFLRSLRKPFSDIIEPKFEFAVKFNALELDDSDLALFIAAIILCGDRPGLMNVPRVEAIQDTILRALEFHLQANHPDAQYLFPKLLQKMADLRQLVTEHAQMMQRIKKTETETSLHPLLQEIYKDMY
Described as above. The settings on record: both partners purified.

Series [3] addresses T5, biotinylated CBP-1 cofactor peptide (CREB-binding protein coactivator motif 1) (N-terminal biotin).
T5 construct: coupled to Tb-streptavidin in the assay; also called CBP-1 peptide; CBP-derived peptide; source: bought: Eurogentec GmbH
T5 peptide: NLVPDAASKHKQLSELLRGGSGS
Description: AlphaScreen or HTRF; as a27, with SR11237 (up to 100 μM) titrated together with unlabeled RXRα total mutant LBD (up to 8 μM); referenced to isolated sGFP-PPARγ LBD activated by rosiglitazone. The settings on record: both partners purified. On the technique in general: Alpha assays give light when donor and acceptor beads are brought close together.

The values that follow come from PMC8258697 (The Journal of Biological Chemistry, 2021).

Broadly, the stoichiometry N is the number of molecules, sites or subunits per partner or assembly.

Where “and” joins values, the source holds several entries; their conditions need not be identical. Equal entries are not always repeated.

B1: PPARδ: PPARδ LBD as fusion protein with N-terminal sGFP (protein)
chain: PQVADLKAFSKHIYNAYLKNFNMTKKKARSILTGKASHTAPFVIHDIETLWQAEKGLVWKQLVNGLPPYKEISVHVFYRCQCTTVETVRELTEFAKSIPSFSSLFLNDQVTLLKYGVHEAIFAMLASIVNKDGLLVANGSGFVTREFLRSLRKPFSDIIEPKFEFAVKFNALELDDSDLALFIAAIILCGDRPGLMNVPRVEAIQDTILRALEFHLQANHPDAQYLFPKLLQKMADLRQLVTEHAQMMQRIKKTETETSLHPLLQEIYKDMY
modifications: left off: His10, N-terminal, cleaved | sGFP, N-terminal, kept
For B1, the Kd with RXRα LBD stood at 363 nM.

B2: PPARα: PPARα LBD as fusion protein with N-terminal sGFP (protein)
chain: SETADLKSLAKRIYEAYLKNFNMNKVKARVILSGKASNNPPFVIHDMETLCMAEKTLVAKLVANGIQNKEAEVRIFHCCQCTSVETVTELTEFAKAIPGFANLDLNDQVTLLKYGVYEAIFAMLSSVMNKDGMLVAYGNGFITREFLKSLRKPFCDIMEPKFDFAMKFNALELDDSDISLFVAAIICCGDRPGLLNVGHIEKMQEGIVHVLRLHLQSNHPDDIFLFPKLLQKMADLRQLVTEHAQLVQIIKKTESDAALHPLLQEIYRDMY
modifications: left off: His10, N-terminal, cleaved | sGFP, N-terminal, kept
As for B2, in the series with RXRα LBD, the Kd was found to be 72 nM.

B3: sGFP-RXRα LBD wildtype (domain or fragment, human, UniProt P19793-1 226-462, looked up)
chain: ANEDMPVERILEAELAVEPKTETYVEANMGLNPSSPNDPVTNICQAADKQLFTLVEWAKRIPHFSELPLDDQVILLRAGWNELLIASFSHRSIAVKDGILLATGLHVHRNSAHSAGVGAIFDRVLTELVSKMRDMQMDKTELGCLRAIVLFNPDSKGLSNPAEVEALREKVYASLEAYCKHKYPEQPGRFAKLLLRLPALRSIGLKCLEHLFFFKLIGDTPIDTFLMEMLEAPHQMT
notes: retinoid X receptor alpha (RXRα) LBD, human, UniProt P19793-1, residues 226-462; only the fractions eluting as monomer in the second SEC were used; also called RXRα as a fusion protein with sGFP; RXRα wt; source: E. coli T7 express, coexpressed with GroEL/ES, purified (Ni IMAC, TEV, two SEC steps); not shown: His10, N-terminal, cleaved; sGFP, N-terminal, kept
Take B3: the Kd in series [1] is 50 nM and 28 nM. Moreover, in series [2], the “stoichiometry N” value stood at 2.

B4: biotinylated RXRα LBD (N-terminal Avi-tag) (domain or fragment, human, UniProt P19793-1 226-462, looked up)
chain: ANEDMPVERILEAELAVEPKTETYVEANMGLNPSSPNDPVTNICQAADKQLFTLVEWAKRIPHFSELPLDDQVILLRAGWNELLIASFSHRSIAVKDGILLATGLHVHRNSAHSAGVGAIFDRVLTELVSKMRDMQMDKTELGCLRAIVLFNPDSKGLSNPAEVEALREKVYASLEAYCKHKYPEQPGRFAKLLLRLPALRSIGLKCLEHLFFFKLIGDTPIDTFLMEMLEAPHQMT
modifications: biotin on the Lys residue in the Avi-tag
notes: retinoid X receptor alpha (RXRα) LBD, human, UniProt P19793-1, residues 226-462; coupled to Tb-streptavidin in the assay; also called biotin-labeled RXRα LBD; source: E. coli T7 express, coexpressed with GroEL/ES, purified (Ni IMAC, TEV and BirA, monomeric avidin, SEC); not shown: His10, N-terminal, cleaved; Avi-tag, N-terminal, kept
As for B4, the figures for the Kd in the series with sGFP-PPARα LBD and with sGFP-PPARβ/δ LBD were 72 nM and 363 nM, respectively.

B5: sGFP-PPARγ LBD:RXRα total mutant LBD (unlabeled) heterodimer (complex, human)
chain 1: PESADLRALAKHLYDSYIKSFPLTKAKARAILTGKTTDKSPFVIYDMNSLMMGEDKIKFKHITPLQEQSKEVAIRIFQGCQFRSVEAVQEITEYAKSIPGFVNLDLNDQVTLLKYGVHEIIYTMLASLMNKDGVLISEGQGFMTREFLKSLRKPFGDFMEPKFEFAVKFNALELDDSDLAIFIAVIILSGDRPGLLNVKPIEDIQDNLLQALELQLKLNHPESSQLFAKLLQKMTDLRQIVTEHVQLLQVIKKTETDMSLHPLLQEIYKDLY
chain 2: TSSANEDMPVERILEAELAVEPKTETYVEANMGLNPSSPNDPVTNICQAADKQLFTLTEWAERIPHFSELPLDDQTILLRAGWNELLIASFSHRSIAVKDGILLATGLHVHRNSAHSAGVGAIFDRVLTELVSKMRDMQMDKTELGCLRAIVLFNPDSKGLSNPAEVEALREKVYASLEAYCKHKYPEQPGRFAKLLLRLPALRSIGLKCLEHLFFFKLIGDTPIDTYLMRMLEAPHQMT
notes: PPARγ isoform 2 LBD, human, UniProt P37231-1, residues 234-505; RXRα LBD, human, residues 223-462, five AF-2 mutations; also called LBD:LBD heterodimer with RXRα; source: mixed from the purified E. coli proteins (100 nM sGFP-PPARγ LBD, RXRα total mutant LBD titrated); not shown: His10, N-terminal, cleaved; sGFP, N-terminal, kept; MBP, N-terminal, cleaved; His8, N-terminal, cleaved
Turning to B5, the “CBP-1 recruitment relative to full activation of monomeric PPARγ with rosiglitazone (%)” value in series [3] amounted to 26%.
